The supplement of paper PMC10567573
± gives the standard deviation.

Assay: protein stability index of a GFP-peptide fusion (GPS, HEK-293T) (PSI 1-6); higher = more stable
[1] = treatment: DMSO, c terminus: a fixed tail appended
[2] = treatment: MLN4924 1 uM, 8 h, c terminus: a fixed tail appended
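Note: 24-mer peptide tiles fused after GFP, lentivirally expressed, FACS-sorted into six equal bins by GFP/DsRed ratio, decoded by Illumina sequencing, PSI is the read-weighted mean bin number.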

Sequence | protein stability index [1] | protein stability index [2] | protein stability index (treatment: DMSO, c terminus: native) | protein stability index (treatment: MLN4924 1 uM, 8 h, c terminus: native)
YKRQEESGAAASLNVDAAVQQWLQ [CHIT1] | 4.22 ± 0.086 | 4.1 ± 0.094 | – | –
YLAHASDVLENAFAPLLDEQYDLA [GOLPH3] | 2.83 ± 0.21 | 3.12 ± 0.36 | – | –
YLAMLERFQDGDNILEKEVLPPIH [FEM1B] | 2.73 ± 0.19 | 2.93 ± 0.24 | – | –
YLELDRLVWRNSIRSSFISSLSFF [FBXO39] | 2.86 ± 0.37 | 2.95 ± 0.45 | – | –
YLFWEFATDNYDIGFGVYFEWTDS [ACBD3] | 3.14 ± 0.85 | 1.93 ± 0.72 | – | –
YLLPDTCFRMQINHAIDIICGFLK [OAS1] | 2.27 ± 0.3 | 2.1 ± 0.33 | – | –
YLYFLFCPTLIYRETYPRTPYVRW [SOAT2] | 2.67 ± 0.76 | 2.58 ± 0.29 | – | –
YPQDLPRPLRSREFPQFEPQRYPA [TRAF3IP2] | 3.93 ± 0.3 | 3.6 ± 0.41 | – | –
YQGGPPRPPMGMRPPVMSQGGRY [ZNF207] | – | – | 2.56 ± 0.27 | 2.84 ± 0.3
YRVWKKMLASVESVPFSFDPNTAA [TRIM35] | 2.06 ± 0.28 | 2.3 ± 0.14 | – | –
YSEEECKQYKAVVYSNTIQSIIAI [GNAI1] | 2.35 ± 0.63 | 2.06 ± 0.33 | – | –
YTSQITVEEGNVQTLLPAACLLQL [KLHL20] | 2.28 ± 0.061 | 2.3 ± 0.25 | – | –
YVHHQALLDVKNIAHQNKFGEDMP [HDAC6] | 2.83 ± 0.54 | 3.49 ± 0.57 | – | –
YWGSPEEQSLLSRWNPWSTEVPYA [TPRG1] | 2.09 ± 0.14 | 2.23 ± 0.28 | – | –
